The record followed here is the nanobody polyreactivity screen of Harvey et al. (2022).

A short description of this data set: yeast display, Sf9 membrane polyspecificity reagent, FACS + sequencing; frameworks hold sequencing errors. In outline:
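Genes from sorted yeast were amplified by colony PCR, read by MiSeq 2 × 250 sequencing and filtered on CDR length. These cells carried a synthetic nanobody library in Saccharomyces cerevisiae BJ5465 and were sorted by FACS into low and high (top ~1%) gates on anti-HA and streptavidin fluorescence. Polyreactivity is labelled according to the gate of origin.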
“QVQLQESGCGLVQAGGSLRLSCAASGSISAVGAMGWYRQAPGKEREFAASVNWGTNTNYADSVKGRFTISRDNAKNTLYLLMNSLTPEDTAVYYCAVLPDWETRHDYWGHGTQVTVSS”: the “polyreactivity (PSR sort gate)” value is listed as “low polyreactivity”.
Take “QVQLQESGDGLVQAVGSLRLSCAASGYISGYYYMGWYRQAPGKERELVAGIDAFGSSTNYADCVKGRFTISRDNAKNTVYLQMNSLKPEDTAVYYCAARPDGYRLFSYWGQGTQVTVSS”: the “polyreactivity (PSR sort gate)” value is on record as “low polyreactivity”.
On to “QVQLQESGGCLVQAGGSQRLSCAASGYIFYFQYMGWYRQAQGKEREFVAAISDGANTNYADSVKGRFTISRDNAKNTEYLKMNSLKPEDTAVYYCAVYADENYYYIYWGQGTQVTVSS”, for which the “polyreactivity (PSR sort gate)” value is “low polyreactivity”.
Then “QVQLQESGGGLAQAGGSLRLSCAASGTIFPADSMGWYRQAPGKERELVAGITTGANTYYADSVKGRFTISHDNAKNTVYLQMDSLIPEDIALYYCAAPGSSTYDLEYWGQGTQVTVSS”, with “high polyreactivity”.
Then “QVQLQESGGGLAQAGGSLRLTCAASGTIFPADSMGWYRQAPGKERELVAGITSGANTYYADSVKGRFTISHDNAKNTVYLQMDSLIPEDIAVYYCGAPGSSTYDLEYWGQGTQVTVSS”, with “high polyreactivity”; and “QVQLQESGGGLEQAGGSLRLSCAASGYISEIGTMGWYRQAPGKEREFVATIVVGSTTNYADSVKGRFTISRDNAKNTVYLQPESGRYRGVLLRGWLLAVGKFNYWGQGTQETVSS”, with “low polyreactivity”; and “QVQLQESGGGLEQAGVSLRLSCAASGYISDIGTMGWYRQAPGKEREFVATIVVGSTTNYADSVKGRFTISRDNAKNTVYLQPESGRYRGVLLRGWLLAVGIFTYWGQGTQETVSS”, with “low polyreactivity”.
In the case of “QVQLQESGGGLLQAGGSLRLSCAASGTISTDSYMGWYRQAPGKERKFVATIGYGGITYYADSVKGRSTISRDSAKNTVYLQMNSLKPEDTEVYYCAVNSYYPDHYWYWGRGTQVTVSS”, the “polyreactivity (PSR sort gate)” value is recorded as “high polyreactivity”.
The result for “QVQLQESGGGLVHAGGILRLSCAASGTISFINMKGWYGQAPGRERELVASINFGANTHYADSVKGRFTIRRDNAKNTVYLQMNSLKPEDTAVSYCAARKVRFGVDYWGQGTQVTVSS” reads “high polyreactivity”.
The result for “QVQLQESGGGLVKAGGSLRLSCAASGNISPSDAMGWYRQAPGEERDLVASNAYSAITYYADGVKGRYTISRDNAKNTVYLQMNSLKPEDTEVYYCAVYQFTYPVFPAYWGQGTQVTVSS” reads “low polyreactivity”; that for “QVQLQESGGGLVLAGGSLRLSCAASGSITAQAYMGWDRQAPGKEREHVAGINYGDNTNYADSVKGRFTISRDNEHRVSADEQPETGRYRGVLLRGFLEIFYYYIFWGQGTQVTVSS”, “high polyreactivity”; that for “QVQLQESGGGLVLAGGSLRLSCSASGNISVYGSMGWYRQAPGKVREFVATIDPGTNTNYADSVKDRFTISRDNAKNTVYLQMNSLKPEDTAVYYCAVEAGSDWPYRYWGQGTQVTVSS”, “low polyreactivity”.
In the case of “QVQLQESGGGLVLAGGSMRLSCAASGSISAHAYMGWERQAPGKEREHVAGINYGDNTNYADSVKGRFTISRDNEHRVSADEQPETGRYRGVLLRGFLELFYYYIYWGQGTQVTVSS”, the “polyreactivity (PSR sort gate)” value was “high polyreactivity”.
With “QVQLQESGGGLVQACGSLRLSCAASGYIFSHQYMGWYRQAPGKERELVASISPGATTNYADCVKGRFTISRDNAKNTVYLQMNSLKPEDTAVYYYAVYQILDRRLSYWGQGTQVTVSC”, the “polyreactivity (PSR sort gate)” value is recorded as “high polyreactivity”.
Then “QVQLQESGGGLVQACGSLRLSCAASGYIFSHQYMGWYRQAPGKERELVASISPGATTNYADSVKGRFTISRDNAKNTVFLQMNSLKPEDTAVYYYAVYQMLDRRLSYWGQGTQVTVSC”, with “high polyreactivity”; and “QVQLQESGGGLVQACGSQRLSCAASGSISEGQDMGWYRRAPGKESEFVAGIAPCATTYYADSVKGRFTISRDNAKNSVYLQMNSLKPEDTAVYYCAARSVTETDHDYWGQCTQVTVSS”, with “low polyreactivity”; and “QVQLQESGGGLVQADGSLRLSCAASGSIFGYYYMGWYRQAPGKDRELVATINICGITNYADSVKGRFTISRDNAKNTVYLQMNSLKPDDTAVYYCAADEYAQRDLGYWGQGTQVTVSR”, with “low polyreactivity”.
As for “QVQLQESGGGLVQAGDSQRLSCAASGNIFRFTDMGWYRQAPGKERELVAAINAGSTTYYADSVKGRFTISRDNAKNTVYLQMNSLKPEDTAVYYCAVYYLGSGTFGYWGQGAQVTVSS”, the “polyreactivity (PSR sort gate)” value was “high polyreactivity”.
Regarding “QVQLQESGGGLVQAGGCLRLSCAASGTIFDPDYMGWYHQAPGKERELVASISLGRITYYADSVKGRFTINRDNAKNTVYLQMNSLKPEDTAVYYCAVRVETIYYYSYWGQGTQVTVSS”, the “polyreactivity (PSR sort gate)” value is reported as “high polyreactivity”.
In the case of “QVQLQESGGGLVQAGGDLRLSCAASGTIFRDYIMGWYRQAPGKEREFVAGIDRGANTNYADSVKGRFTISRDNAKNTVYLQMNSLKPEDTAVYYCAADWWRVDMDYWGQGTQVTVSS”, the “polyreactivity (PSR sort gate)” value is “low polyreactivity”.
The result for “QVQLQESGGGLVQAGGGLRLSCAESGTISGPHVMRWYRQATGKEREFVAAINVGAYTYYADNVKGRFTISRDNEKNTVYLQMNSLKPEDTAFYYCAAFARYSRRYYYWGQGTQVTVSS” reads “low polyreactivity”.
The result for “QVQLQESGGGLVQAGGILRLSCAACGNIFPSAVMGWYRQALGKEREFVATINSGSNTYYADSVNGRFSISRDNAKHTVYLHRNSLKLQDTAVYYCAAYFKLPAWHTSWGQGTQVSVSS” reads “low polyreactivity”; that for “QVQLQESGGGLVQAGGSLCLSCAASGTIFFDGDMGWYRQAPGKEREFVAAINPGGSAYYADSVKGRLPLAAITHSVYLQMNSLKPEDTAVYYCAAKLFDVYGYYYWGQGTHVTVSS”, “low polyreactivity”.
For the sequence “QVQLQESGGGLVQAGGSLCLSCAASGTNFFDGHMGWYRQAPGKEREFVAAINPGGSAYYADSLKGRLPLAAITHTVYLQMNSLKPEDTAVYYCAAILFDVYGYYYWGQGTHVTVSS”, the “polyreactivity (PSR sort gate)” value is given as “low polyreactivity”.
Then “QVQLQESGGGLVQAGGSLLSCAASGTISYYREMGSYRQAPGKERELVAGIGVGTITYYADSVKGRFTISRDNAKKTVFLQMNSLNPEDTAVYFCGDHIDGNDSHAYWGQGTQVTVSS”, with “low polyreactivity”; and “QVQLQESGGGLVQAGGSLRLICAASCTISQEDWMGWYRQAPGKEREFVAAIGLGSNTNYADSLKGRFTISRDNAKITVYLQMNSLKPEDTAVYYCNNDSTNNPFQYDYWGQGTQVTVSS”, with “low polyreactivity”; and “QVQLQESGGGLVQAGGSLRLRCAASRNISGSSDLGWYHQAPGKEREFVASMTSGGTTYYADSVKGRFTISRDNAKISEYLQMNSLKPEDTAVYYCAVGDPADAEFGYWGQGTQVTVRS”, with “low polyreactivity”.
Consider “QVQLQESGGGLVQAGGSLRLSCAAIGTIFASQHMGWYRQAPGKERELVASIAKGGNTYYADSVKGRFTISRGNAKNTEYLQMNSLKPEDTAVYYCAAEIDLPYYYGSADDDYWGQGTQVTVSS”, for which the “polyreactivity (PSR sort gate)” value is given as “high polyreactivity”.
Then “QVQLQESGGGLVQAGGSLRLSCAASCTISQEDWIGWYRQAPGKEREFVAAIGLGSNTNYADSLKGRFTISRDNAKNTVYLQMNSLKPEDTAVYYCAVSVWQYSDHVYRGQGTQVTVSS”, with “low polyreactivity”; and “QVQLQESGGGLVQAGGSLRLSCAASGDILEADDMGWYRQAPGKERELVASITDGGSTNCADSMKGRSTICRDNAKITVYVQMNRLKLEDTAVYYCAGIAYPDVPTYFDYDSDYFYWGQGTLVTVSS”, with “high polyreactivity”.
The result for “QVQLQESGGGLVQAGGSLRLSCAASGIIFDNPNMGWYRQAPGKQRELVATINSGATTNYADSVKGRFTISRDNAKNTVYLLMNSLIPEDTAVYYCAVDLSPTYFYYWGQGTQVTVSS” reads “high polyreactivity”; that for “QVQLQESGGGLVQAGGSLRLSCAASGNIFEADIMGWYHQAHGKERELVASITDGGSTNYADSVKGRFNIKRDNAKNIVYLQMNSLKPEDTAVYYCAAIAYPDIATYFDYDSDYFYWGQGTQVTVSS”, “high polyreactivity”; that for “QVQLQESGGGLVQAGGSLRLSCAASGNIFLGDTMGWYRQAPGKEREFVAGIARGGNPYYADSVKGRFTISRNNANNTVYLQKNSLKPEDTAVHYCAVQRSHASDYNYWGQGTQVTVSS”, “low polyreactivity”.
The result for “QVQLQESGGGLVQAGGSLRLSCAASGNISVTGFMGWYRQAPGKERELVASIGIGATTYYADSVKGRFSISRDNAKNTVYLQMNSLKPEDTAVYYCAARYLYYAYSYWGQGTQVTVSS” reads “low polyreactivity”.
Take “QVQLQESGGGLVQAGGSLRLSCAASGNISVTGFMGWYRQAPGKERELVASIGIGGTTYYADSVKGRFSISRDNAKNTVYLKMNSLKQEDTSVYYCAARYLYYAYSYWGQGTQVTVSS”: the “polyreactivity (PSR sort gate)” value is “low polyreactivity”.
For “QVQLQESGGGLVQAGGSLRLSCAASGNISVTGFMGWYRQATGKERELVASIGIGGTTYYADSVKGRFSISRDNAKNTVYLQMNSLKPEDTAVYYCAARYLYYAYSYWGQGTQVTVSS”, the “polyreactivity (PSR sort gate)” value is recorded as “low polyreactivity”.
On to “QVQLQESGGGLVQAGGSLRLSCAASGNIVDADIMGWYRQEPGKERELVASITDGGSTNYADSVKGRFTISRDNAKNTVYLQMNSLKPEDTAVYYCAAIAYPDIPTYFDYDSEYFYWGQGTQVTVSS”, for which the “polyreactivity (PSR sort gate)” value was “low polyreactivity”.
The result for “QVQLQESGGGLVQAGGSLRLSCAASGSIFADVQMGWYRQAPGKERELVASINFRGTTTYNADSVKGRITISRDNSKNTVYLQMSSLKPEDTAVYYCSVGRSEGGDYAYWGQGTHVTVSS” reads “low polyreactivity”.
“QVQLQESGGGLVQAGGSLRLSCAASGSIFHLHIKCWYRQAPGKERESVAAISYGTSTYYADRVKGRFTICRDNAKNTVYLQMNSPKPDDTAVYYCAALFLVSKHHHYWGEGTQVTVSS”: the “polyreactivity (PSR sort gate)” value is “low polyreactivity”.
As to “QVQLQESGGGLVQAGGSLRLSCAASGSIFKVVDMGLYRQAPAKEREFVATIGEGGNTYYADSVKGRFTISRDNAKNTVYLQMNSLKTEDTAVYFYAVVLGTSYRYTYWGQGTKVTVSS”, the “polyreactivity (PSR sort gate)” value is “low polyreactivity”.
The result for “QVQLQESGGGLVQAGGSLRLSCAASGSIFKVVDMGLYRQEPAKEREFVATIGEGGNTYYADSVKGRFTISRDNAKNTVFLQMNSLKPEDTAVYFYAVVLGTSYRYTYWGQGTQVTVSS” reads “low polyreactivity”.
